Results on one substance are retold here after paper PMC9878616.

The target of this experiment is N-terminal GST-like domain of P. berghei glutamyl-tRNA synthetase (ERS-N) (P. berghei). Briefly: SEC-SAXS. On the technique in general: SEC sorts molecules by how far they enter the pores of the column.

On to “N-terminal GST-like domain of P. berghei glutamyl-tRNA synthetase (ERS-N) (from UniProt A0A509AR09 1-240) (domain or fragment)”, for which the percent of dimers (OLIGOMER fit) stood at 77.9% and the percent of tetramers (OLIGOMER fit) stood at 22.1%.
